In patent US20220089705A1 (Harvard, published 2022):

Experiments:
[1] = biological target: T1, human aP2 (fatty acid-binding protein, adipocyte, FABP4/aP2) (human, UniProt P15090 1-132, Biotinylated with Sulfo-NHS-LC-Biotin in the Octet assay. Refolded with palmitic acid after delipidation. The letters carry neither.); experiment: method not stated in the sentence (FIG. 31); average binding affinity; PB1172, human aP2
T1 construct: also called haP2; human FABP4

[2] = biological target: T2, mouse aP2 (fatty acid-binding protein, adipocyte, FABP4/aP2) (mouse, UniProt P04117 1-132); experiment: method not stated in the sentence (FIG. 31); average binding affinity; PB1172, mouse aP2
T2 construct: Lipid-loaded and de-lipidated preparations are the same polypeptide and are told apart under assay; also called mouse FABP4; murine aP2
T2 sequence: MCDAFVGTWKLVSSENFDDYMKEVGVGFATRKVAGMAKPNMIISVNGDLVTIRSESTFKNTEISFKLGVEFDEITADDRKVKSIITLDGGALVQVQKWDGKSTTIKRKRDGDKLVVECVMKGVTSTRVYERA

[3] = biological target: T1, human aP2 (fatty acid-binding protein, …); experiment: assay not given; KD (M) column under 'Human', first of two rows (also printed as 5.62 under KD (µM))
[4] = biological target: T2, mouse aP2 (fatty acid-binding protein, …); experiment: assay not given; KD (M) column under 'Mouse', first of two rows (also printed as 4.14 under KD (µM))
[5] = biological target: T1, human aP2 (fatty acid-binding protein, …); experiment: assay not given; KD (M) column under 'Human', second of two rows (also printed as 6.44 under KD (µM))
[6] = biological target: T2, mouse aP2 (fatty acid-binding protein, …); experiment: assay not given; KD (M) column under 'Mouse', second of two rows (also printed as 4.99 under KD (µM))
[7] = biological target: T3, recombinant human FABP5/Mal1 (human, UniProt Q01469 1-135); experiment: Octet RED384: biotinylated human FABP5/Mal1 on streptavidin biosensors, maximal association signal minus background
T3 construct: Bought; Biotinylated and loaded on streptavidin biosensors; also called hFABP5/hMal1; Mal1/FABP5
T3 sequence (Q01469 whole entry): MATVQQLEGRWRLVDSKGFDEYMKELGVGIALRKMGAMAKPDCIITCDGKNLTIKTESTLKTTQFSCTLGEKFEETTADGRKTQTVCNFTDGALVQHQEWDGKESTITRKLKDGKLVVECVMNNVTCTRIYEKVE
Protocol: The recombinant human proteins aP2 (generated at UCB in E. coli (see method below)), hFABP3 (Sino Biological Inc.) and hFABP5/hMal1 (Sino Biological Inc.) were biotinylated in a 5-fold molar excess of EZ-Link® Sulfo-NHS-LC-Biotin (Thermo Fisher Scientific) and purified from unbound biotin using a Zeba desalting column (Thermo Fisher Scientific). All binding studies were performed at 25° C. using a ForteBio Octet RED384 system (Pall ForteBio Corp.). After a 120 s baseline step in PBS containing 0.05% Tween 20, pH7.4 (PBS-T), Dip and Read™ streptavidin (SA) biosensors (Pall ForteBio Corp.) were loaded with biotinylated recombinant haP2, hFABP3 or hFABP5/hMal1 at 60 nM for 90 s. After a 60 s stabilisation step in PBS-T, each FABP-loaded biosensor was transferred to a sample of monoclonal antibody at 800 nM and association was measured for 5 min. Biosensors were then transferred back to PBS-T for 5 min to measure dissociation. Non-specific binding of antibodies was monitored using unloaded biosensor tips. Maximal association binding i.e., once signal had plateaued, minus background binding, was plotted for each antibody/FABP combination.

[8] = biological target: T1, human aP2 (fatty acid-binding protein, …); experiment: SPR, Biacore T200: antibody captured on immobilized anti-mouse IgG Fc, aP2 titrated 25 to 3.13 nM, 1:1 binding model
Protocol: (§1) The affinity of anti-aP2 binding to aP2 (recombinantly generated in E. coli as described below) was determined by biomolecular interaction analysis, using a Biacore T200 system (GE Healthcare). Affinipure F(ab′)2 fragment goat anti-mouse IgG, Fc fragment specific (Jackson ImmunoResearch Lab, Inc.) in 10 mM NaAc, pH 5 buffer was immobilized on a CMS Sensor Chip via amine coupling chemistry to a capture level between 4500-6000 response units (RU) using HBS-EP+(GE Healthcare) as the running buffer. Anti-aP2 IgG was diluted to between 1-10 μg/ml in running buffer. A 60 s injection of anti-aP2 IgG at 10 μl/min was used for capture by the immobilized anti-mouse IgG, Fc then aP2 was titrated from 25 nM to 3.13 nM over the captured anti-aP2 for 180 s at 30 μl/min followed by 300 s dissociation. The surface was regenerated by 2×60 s 40 mM HCl and 1×30 s 5 mM NaOH at 10 μl/min. The data were analyzed using Biacore T200 evaluation software (version 1.0) using the 1:1 binding model with local Rmax. […] The surface was regenerated by 1×60 s 40 mM HCl, 1×30 s 5 mM NaOH and 1×60 s 40 mM HCl at 10 μl/min. Steady state fitting was used to determine affinity values.

[9] = biological target: T2, mouse aP2 (fatty acid-binding protein, …); experiment: method not stated in the sentence (FIG. 31); average binding affinity; PB1171, mouse aP2
[10] = biological target: T2, mouse aP2 (fatty acid-binding protein, …); experiment: assay not given; KD (M) column under 'Mouse', first of two rows (also printed as 5.53 under KD (µM))
[11] = biological target: T2, mouse aP2 (fatty acid-binding protein, …); experiment: assay not given; KD (M) column under 'Mouse', second of two rows (also printed as 4.71 under KD (µM))
[12] = biological target: T1, human aP2 (fatty acid-binding protein, …); experiment: SPR, Biacore T200: antibody captured on immobilized anti-mouse IgG Fc, aP2 titrated 40 to 0.625 µM, steady state fit
Protocol: as §1

B1: PB1172 (H3 gL11/gH19), reduced-affinity variant of H3 (antibody, mouse IgG1, V domains shown)
VH: QVQLQQPGAELVKPGASVKLSCKASGYTFTSNAITWVKQRPGQGLEWIGDISPGSGSTTNNEKFKSKATLTVDTSSSTAYMQLSSLTSEDSAVYYCARLRGYYDYFDFWGQGTTLTVSS
VL: EVVLTQSPALMAASPGEKVTITCSVSSSISSSNLHWYQQKSETSPKPWIYGTSNLASGVPVRFSGSGSGTSYSLTISSMEAEDAATYYCQQASHYPLTFGAGTKLELK
notes: Heavy chain W33A, Y52S; light chain W91A, relative to H3; also called 5251.mIgG1168; APP5168/PB1172
Kd [1]: 6.03 µM | Kd [2]: 4.57 µM | Kd [3]: 5.62 µM | Kd [4]: 4.14 µM | Kd [5]: 6.44 µM | Kd [6]: 4.99 µM

B2: H3, mouse anti-aP2 monoclonal antibody (H3 gL1/gH1) (antibody, V domains shown)
VH: QVQLQQPGAELVKPGASVKLSCKASGYTFTSNWITWVKQRPGQGLEWIGDIYPGSGSTTNNEKFKSKATLTVDTSSSTAYMQLSSLTSEDSAVYYCARLRGYYDYFDFWGQGTTLTVSS
VL: EVVLTQSPALMAASPGEKVTITCSVSSSISSSNLHWYQQKSETSPKPWIYGTSNLASGVPVRFSGSGSGTSYSLTISSMEAEDAATYYCQQWSHYPLTFGAGTKLELK
notes: Mouse IgG; also called wild-type parent H3
binding result [7]: no binding | Kd [8]: 0.0011 µM

B3: PB1171 (H3 gL1/gH20), reduced-affinity variant of H3 (antibody, mouse IgG1, V domains shown)
VH: QVQLQQPGAELVKPGASVKLSCKASGYTFTSNAITWVKQRPGQGLEWIGDISPGSGSTTNNEKFKSKATLTVDTSSSTAYMQLSSLTSEDSAVYYCARLRGFYDYFDFWGQGTTLTVSS
VL: EVVLTQSPALMAASPGEKVTITCSVSSSISSSNLHWYQQKSETSPKPWIYGTSNLASGVPVRFSGSGSGTSYSLTISSMEAEDAATYYCQQWSHYPLTFGAGTKLELK
notes: Heavy chain W33A, Y52S, Y98F relative to H3; also called 5252.mIgG1.169; APP5169/PB1171
Kd [9]: 5.12 µM | Kd [10]: 5.53 µM | Kd [11]: 4.71 µM

B4: CA33, rabbit-mouse hybrid anti-aP2 monoclonal antibody (Rabbit Ab 909) (antibody, V domains shown)
VH: QSVEESGGRLVTPGTPLTLTCTVSGFSLSTYYMSWVRQAPGKGLEWIGIIYPSGSTYCASWAKGRFTISKASTTVDLKITSPTTEDTATYFCARPDNDGTSGYLSGFGLWGQGTLVTVSS
VL: DVVMTQTPASVSEPVGGTVTIKCQASEDISRYLVWYQQKPGQPPKRLIYKASTLASGVPSRFKGSGSGTDFTLTISDLECDDAATYYCQCTYGTYAGSFFYSFGGGTEVVVE
notes: also called Rabbit Antibody 909
binding result [7]: no binding | Kd [12]: 2.83 µM
